T1: rat FcRn (rat, UniProt P13599)
T1 chain 1: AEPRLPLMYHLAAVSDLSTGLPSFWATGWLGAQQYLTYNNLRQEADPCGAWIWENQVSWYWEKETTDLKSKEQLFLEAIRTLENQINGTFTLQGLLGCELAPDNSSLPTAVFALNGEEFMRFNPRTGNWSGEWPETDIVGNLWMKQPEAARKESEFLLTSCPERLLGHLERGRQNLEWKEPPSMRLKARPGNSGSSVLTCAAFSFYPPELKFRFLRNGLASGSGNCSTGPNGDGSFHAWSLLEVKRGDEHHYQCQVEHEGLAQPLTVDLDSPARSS
T1 chain 2: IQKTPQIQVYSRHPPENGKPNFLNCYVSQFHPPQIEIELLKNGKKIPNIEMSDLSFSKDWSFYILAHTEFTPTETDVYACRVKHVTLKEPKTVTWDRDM

T2: mouse FcRn (mouse, UniProt Q61559)
T2 chain 1: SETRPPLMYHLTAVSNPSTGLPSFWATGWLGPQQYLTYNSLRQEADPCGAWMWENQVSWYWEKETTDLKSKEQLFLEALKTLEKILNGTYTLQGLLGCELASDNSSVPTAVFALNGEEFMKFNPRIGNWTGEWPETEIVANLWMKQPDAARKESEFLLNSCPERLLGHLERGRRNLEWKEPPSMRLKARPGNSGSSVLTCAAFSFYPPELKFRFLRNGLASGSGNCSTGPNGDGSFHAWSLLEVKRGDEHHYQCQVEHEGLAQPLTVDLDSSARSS
T2 chain 2: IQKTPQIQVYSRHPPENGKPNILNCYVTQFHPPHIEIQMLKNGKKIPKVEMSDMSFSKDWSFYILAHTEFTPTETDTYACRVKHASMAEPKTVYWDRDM


Key:
[1] = target: T3, shFcRn (human, UniProt P55899); test: SPR pH 6.0
[2] = target: T3, shFcRn; test: SPR pH 7.4
[3] = target: T1, rat FcRn; test: FACS pH 7.4
[4] = target: T2, mouse FcRn; test: FACS pH 6.0
[5] = target: T3, shFcRn; test: SPR pH 6.0; remark: listed apart in the source
[6] = target: T3, shFcRn; test: SPR pH 7.4; remark: listed apart in the source
[7] = target: T3, shFcRn; test: SPR pH 6.0; remark: listed apart in the source
[8] = target: T3, shFcRn; test: SPR pH 7.4; remark: listed apart in the source

Binder | Kd [1] [nM] | koff [7] [s⁻¹] | koff [8] [s⁻¹] | further results
11Hg (antibody) chain 1: QVQLVESGGGVVQPGRSLRLSCAASGFTFSSYAMHWVRQAPGKGLEWVAVISYDGSNKYYADSVKGRFTISRDNSKNTLYLQMNSLRAEDTAVYYCARGSGGRDAFDVWGQGTMITVSS chain 2: DIQMTQSPSTLSASVGDRVTITCRASQSISSRLAWYQQKPGKAPKLLIYKASSLETGVPSRFSGSGSGTEFTLTISSLQPDDFATYYCQQTNSFPLTFGGGTKVEIK |  |  |  | koff [5]: 0.000434 s⁻¹; koff [6]: 0.000433 s⁻¹
A11-G06 (antibody) chain 1: EVQLVESGGGLVQPGRSLRLSCAASGFTFDEYGMHWVRQAPGKGLEWVSGVSWNSGSIAYADSVRGRFTISRDNAKNSLYLQMNSLRAEDTALYYCAKGRLMDVWGQGTTVTVSS chain 2: QSALTQPASVSGSPGQSITISCTGSSSDVGGYNYVSWYQQHPGKAPKLMIYDVTKRPSGVSNRFSGSKSGNTASLTISGLQAEDEADYYGSYNNNTFYVFGTGTKVTVL |  | 0.000225 | 0.000496 | 
A12-C09 (antibody) chain 1: EVQLVESGGGLVQPGRSLRLSCAASGFTFDEYGMHWVRQAPGKGLEWVSGVSWNSGSIAYADSVRGRFTISRDNAKNSLYLQMNSLRAEDTALYYCAKGRTMDVWGQGTTVTVSS chain 2: QSALTQPASVSGSPGQSITISCTGSSSDVGGYNYVSWYQQHPGKAPKLMIYDVTKRPSGVSNRFSGSKSGNTASLTISGLQAEDEADYYGSYSSNTFYVFGTGTKVTVL |  | 0.000177 | 0.000909 | 
A12-E04 (antibody) chain 1: EVQLVESGGGLVQPGRSLRLSCAASGFTFDEYGMHWVRQAPGKGLEWVSGVSWNSGSIAYADSVRGRFTISRDNAKNSLYLQMNSLRAEDTALYYCAKGRLFDVWGQGTTVTVSS chain 2: QSALTQPASVSGSPGQSITISCTGSSSDVGGYNYVSWYQQHPGKAPKLMIYDVTKRPSGVSNRFSGSKSGNTASLTISGLQAEDEADYYGSYSNSNFYVFGTGTKVTVL |  | 0.000132 | 0.00137 | 
A12-E05 (antibody) chain 1: EVQLVESGGGLVQPGRSLRLSCAASGFTFDEYGMHWVRQAPGKGLEWVSGVSWNSGSIAYADSVRGRFTISRDNAKNSLYLQMNSLRAEDTALYYCAKGRILDVWGQGTTVTVSS chain 2: QSALTQPASVSGSPGQSITISCTGSSSDVGGYNYVSWYQQHPGKAPKLMIYDVTKRPSGVSNRFSGSKSGNTASLTISGLQAEDEADYYGSYNNSTFYVFGTGTKVTVL |  | 0.000216 | 0.00222 | 
1Ag (antibody) chain 1: EVQLVESGGGLVQPGRSLRLSCAASGFTFDEYGMHWVRQAPGKGLEWVSGVSWNSGSIAYADSVRGRFTISRDNAKNSLYLQMNSLRAEDTALYYCAKGRSMDVWGQGTTVTVSS chain 2: QSALTQPASVSGSPGQSITISCTGSSSDVGGYNYVSWYQQHPGKAPKLMIYDVTKRPSGVSNRFSGSKSGNTASLTISGLQAEDEADYYCSSYSSSTFYVFGTGTKVTVL |  | 0.000222 | 0.000212 | 
A12-E01 (antibody) chain 1: EVQLVESGGGLVQPGRSLRLSCAASGFTFDEYGMHWVRQAPGKGLEWVSGVSWNSGSIAYADSVRGRFTISRDNAKNSLYLQMNSLRAEDTALYYCAKSRSMDVWGQGTTVTVSS chain 2: QSALTQPASVSGSPGQSITISCTGSSSDVGGYNYVSWYQQHPGKAPKLMIYDVTKRPSGVSNRFSGSKSGNTASLTISGLQAEDEADYYGSYSNNNFYVFGTGTKVTVL |  | 5.99e-05 | 0.00115 | 
A11-C07 (antibody) chain 1: EVQLVESGGGLVQPGRSLRLSCAASGFTFDEYGMHWVRQAPGKGLEWVSGVSWNSGSIAYADSVRGRFTISRDNAKNSLYLQMNSLRAEDTALYYCAKGRYSDVWGQGTTVTVSS chain 2: QSALTQPASVSGSPGQSITISCTGSSSDVGGYNYVSWYQQHPGKAPKLMIYDVTKRPSGVSNRFSGSKSGNTASLTISGLQAEDEADYYASYSSNTFYVFGTGTKVTVL |  | 0.000393 | 0.00248 | 
A12-F02 (antibody) chain 1: EVQLVESGGGLVQPGRSLRLSCAASGFTFDEYGMHWVRQAPGKGLEWVSGVSWNSGSIAYADSVRGRFTISRDNAKNSLYLQMNSLRAEDTALYYCAKGRYLDVWGQGTTVTVSS chain 2: QSALTQPASVSGSPGQSITISCTGSSSDVGGYNYVSWYQQHPGKAPKLMIYDVTKRPSGVSNRFSGSKSGNTASLTISGLQAEDEADYYGSYDSNTFYVFGTGTKVTVL |  | 0.000305 | 0.000225 | 

The next lines start with results.

Kd [1] [nM] | koff [7] [s⁻¹] | koff [8] [s⁻¹] | Binder | further results
1.9 |  |  | HL161-6C (antibody) chain 1: QVQLVESGAEVKKPGASVKVSCKASGYTFTSYYMHWVRQAPGQGLEWMGIINPSGGSTSYAQKFQGRVTMTRDTSTSTVYMELSSLRSEDTAVYYCARGGGAFDIWGQGTMVTVSS chain 2: DIQMTQSPSSVSASVGDRVTITCRASQGISNWVAWYQQKPGKAPKLLIYAASSLQSGVPSRFSGSGSGTDFTLTISSLQPEDFAIYYCQQGHSFPYTFGQGTKVEIK | Kd [2]: 6.6 nM
0.35 |  |  | HL161-11H (antibody) chain 1: QMQLVESGGGLVQPGRSLRLSCAASGFTFSSYAMHWVRQAPGKGLEWVAVISYDGSNKYYADSVKGRFTISRDNSKNTLYLQMNSLRSEDTAVYYCSRGSGGRDAFDVWGQGTMITVSS chain 2: DIQMTQSPSTLSASVGDRVTITCRASQSISSRLAWYQQKPGKAPKLLIYKASSLETGVPSRFSGSGSGTEFTLTISSLQPDDFATYYCQQTNSFPLTFGGGTKVEIK | binding result [3]: no binding; Kd [2]: 0.9 nM; binding result [4]: no binding
3.8 |  |  | HL161-10E (antibody) chain 1: QVQLVESGGGLVQPGGSLRLSCAASGFRFSNFAMTWVRQAPGKGLEWVSTLSGSGGSIHHADSVKGRFTISRDNSKNTLYLQMNSLRAEDTAVYYCAKGPLRGQPAYLDPWGQGTLVTVSS chain 2: SYELTQPLSVSMSPGQTARITCSGDALSKQYASWYQLKPGQAPVVVMYKDTERPSGIPDRFSGSSSGTTVTLTISGVQAEDEADYYCQSITDKSGTDVIFGGGTKLTVL | Kd [2]: 26 nM
 | 0.00022 | 0.00235 | A12-H04 (antibody) chain 1: EVQLVESGGGLVQPGRSLRLSCAASGFTFDEYGMHWVRQAPGKGLEWVSGVSWNSGSIAYADSVRGRFTISRDNAKNSLYLQMNSLRAEDTALYYCAKGRLLDVWGQGTTVTVSS chain 2: QSALTQPASVSGSPGQSITISCTGSSSDVGGYNYVSWYQQHPGKAPKLMIYDVTKRPSGVSNRFSGSKSGNTASLTISGLQAEDEADYYGAYSNTNFYVFGTGTKVTVL | 
0.8 |  |  | HL161-1A (antibody) chain 1: QVQLVQSGGGLVQPGRSLRLSCAASGFSFGEYGMHWVRQAPGKGLEWVSGVSWNSGSIAYADSVRGRFTISRDNSKNSLYLQMNSLRAEDTAVYYCARGRSMDVWGQGTTVTVSS chain 2: NFMLTQPASVSGSPGQTITISCTGSSSDVGGYNYVSWYQQHPGKAPQLIIYDVTKRPSGVSNRFSGSKSGNSASLTISGLQAEDEADYYCSSYSSSTFYVFGTGTKVTVL | 
0.16 |  |  | HL161-11G (antibody) chain 1: QMQLVESGGGVVQPGRSLRLSCVGSGFNFNSYGIHWVRQAPGKGLEWVGGIFYDGSQVKYADSVKGRVSISRDNSKNTAYLQMNSLRAEDTAVYYCARRNLLDYWGQGTVVTVSS chain 2: NFMLTQPASVSGSPGQSITISCTGSSSDVGGYNYVSWYQQHPGKAPQLIIYDVTKRPSGVSNRFSGSKSGNSASLTISGLQAEDEADYYCSSYSSSTFYVFGTGTKVTVL | 

From EP3010938
